Laboratory results reported in paper PMC6220269, “Dynamic ubiquitylation of Sox2 regulates proteostasis and governs neural progenitor cell differentiation” (Nature Communications, 2018).

Molecular target: T1, His-Sox2 (human, UniProt P48431 1-317)
T1 construct: Sox2, human, cloned into pGEX-6p-1 or pET-28a (+) for the GST pull-down; source: E. coli BL21, purified
Experiment: pull-down; GST-tagged protein on glutathione-Sepharose 4B beads incubated with His-tagged protein for 24 h at 4 °C; washed four times with 100 mM NaCl, 10 mM Tris, 50 mM NaF, 2 mM EDTA, 0.5 mM Na3VO4, 1% Nonidet P40; western blot
Conditions: both partners purified

T1 sequence (P48431 whole entry): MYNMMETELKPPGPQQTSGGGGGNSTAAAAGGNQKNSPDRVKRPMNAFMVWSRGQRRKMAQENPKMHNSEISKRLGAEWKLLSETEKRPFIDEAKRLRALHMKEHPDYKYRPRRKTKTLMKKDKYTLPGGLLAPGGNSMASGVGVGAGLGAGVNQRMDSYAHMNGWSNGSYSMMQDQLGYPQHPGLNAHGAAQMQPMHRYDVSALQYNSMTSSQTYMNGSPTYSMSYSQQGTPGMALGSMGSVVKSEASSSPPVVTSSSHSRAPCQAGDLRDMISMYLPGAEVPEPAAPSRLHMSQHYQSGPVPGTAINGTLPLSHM

B1: GST-OTUD7B-ZF (811–843) (domain or fragment, human, UniProt Q6GQQ9 811-843, looked up)
chain: GHPETNNFCSCCYREELRRREREPDGELLVHRF
notes: OTUD7B, human, C-terminal zinc finger (ZF) domain, residues 811-843; also called OTUD7B ZF domain; source: E. coli BL21, purified
B1: binds.
